Several values for one entry are separate records, joined by “and”; a condition that tells them apart may be missing. Equal entries are not always repeated. Entries after “also recorded” stand apart in the source; their conditions may differ.
Legend:
[1] = test system: ARF6; experiment: VEGF induced ARF6-GTP, HMVEC, SecinH3; type: cell-based, human
[2] = test system: neovascular tuft formation; experiment: Laser-induced choroidal neovascularization, SecinH3; type: in vivo; details: wild-type mice, intravitreal injection, final concentration 21.6 μM, versus DMSO
[3] = test system: neovascular tuft formation; experiment: Oxygen-induced retinopathy, SecinH3; type: in vivo; details: wild-type mice, intraocular injection, final concentration 21.6 μM, versus DMSO
[4] = test system: HMVEC; experiment: VEGF induced migration of HMVECs (modified Boyden chamber); type: cell-based, human
[5] = test system: human microvascular endothelial cells; experiment: Haptotaxis migration assay, human microvascular endothelial cells; type: cell-based; details: transwells coated with fibronectin and Slit2
[6] = test system: pathological angiogenesis; experiment: Oxygen-induced retinopathy (OIR), Slit2N; type: in vivo; details: Robo4^+/+ mice, intravitreal administration
[7] = test system: c-Src; experiment: VEGF-A-stimulated c-Src phosphorylation, HMVEC; type: cell-based, human; details: endothelial cells (HMVEC)
[8] = test system: VEGFR2; experiment: VEGF-A-induced VEGFR2 phosphorylation, HMVEC; type: cell-based, human; details: 5 minutes
[9] = test system: endothelial cells; experiment: Spreading assay, endothelial cells; type: cell-based, human
[10] = test system: Cdc42; experiment: Cdc42-GTP levels, endothelial cells on fibronectin; type: cell-based; details: presence of Slit2
[11] = test system: dermal permeability; experiment: Miles assay / VEGF-induced dermal permeability; type: in vivo; details: Robo4^+/+ mice, concomitant intradermal Slit2
[12] = test system: Avian Flu Virus, strain H5N1/Duck/Mn/1525/81; parameters: species or system BALB/c mice; details: mouse, in vivo
[13] = test system: Rac1; experiment: VEGF-A-dependent Rac1 activation, HMVEC; type: cell-based, human; details: endothelial cell monolayers (HMVEC)
[14] = test system: choroidal neovascularization; experiment: Laser-induced choroidal neovascularization (CNV), Slit2N; type: in vivo; details: Robo4^+/+ mice, intravitreal administration
[15] = test system: neovascularization of the retina; experiment: Retinopathy of prematurity: percent neovascularization of the retina (FIG. 12); type: in vivo; details: wildtype mice, Slit versus Mock preparation, N=6, P<0.003
[16] = test system: Rac; experiment: Rac-GTP levels, endothelial cells on fibronectin; type: cell-based; details: endothelial cells on fibronectin and Slit2
[17] = test system: LPS; experiment: Acute lung injury, intratracheal LPS, bronchoalveolar lavage; type: in vivo, mice; details: versus Mock preparation
[18] = test system: lung endothelial cells; experiment: VEGF-A tube formation assay, murine lung endothelial cells; type: cell-based, mice
[19] = test system: ARF6; experiment: ARF6 activation assay (GST-GGA3), endothelial cells on VEGF-165; type: cell-based; details: endothelial cells on dishes coated with VEGF-165 and Slit2
[20] = test system: lung endothelial cells; experiment: VEGF-A endothelial cell migration assay, murine lung endothelial cells; type: cell-based, mice
[21] = test system: Rho; experiment: Rho-GTP levels, endothelial cells on fibronectin; type: cell-based; details: presence of Slit2
[22] = test system: murine lung endothelial cells; experiment: bFGF-induced tube formation on matrigel; type: cell-based
[23] = test system: Rac; experiment: VEGF-induced Rac activation in HUVEC; type: cell-based, human; details: GST-PBD pull down
[24] = test system: retinal endothelium; experiment: VEGF induced retinal permeability (Evans Blue), Slit2; type: in vivo, mice; details: intravitreal co-injection
[25] = test system: lung endothelial cells; experiment: In vitro permeability assay (Transwell, HRP); type: cell-based, mice; details: Robo4^+/+ endothelial cell monolayers, pre-treatment with Slit2
[26] = test system: ARF6; experiment: ARF6 activation assay (GST-GGA3), endothelial cells on fibronectin; type: cell-based; details: endothelial cells on fibronectin and Slit2
[27] = test system: endothelial cell migration; experiment: VEGF-induced endothelial cell migration by Slit constructs (FIG. 23); type: cell-based; details: Slit constructs 2 nM, compared with full length Slit2; listed as Slit2-D1
[28] = endothelial cells pre-treated with inhibitor or vehicle (Example 28)

`COc1nc(-c2ccc3c(c2)OCO3)n(-c2ccc(NC(=O)CSc3ccccc3)cc2)n1` [SecinH3] was tested. Which “accumulation of ARF6-GTP” value ([1]; HMVEC, 20 ng/ml VEGF, 50 μM Secin-H3) did it give?
The value was “blocks; also recorded: inhibits”.

And the “VEGF-induced Arf6 activation” value [1, 28]?
Its value is “prevented”.

And the “neovascular tuft formation in CNV” value [2]?
Its value is “inhibited”.

What about the “neovascular tuft formation in OIR” value [3] of the same molecule?
Its value is “inhibited”.

And the “VEGF-165 induced cell migration response” value ([4]; HMVEC, 15 ng/ml VEGF-165, 15 μM Secin-H3, 3 h)?
Its value is “attenuated; also recorded: inhibits”.

What about the VEGF-induced cell migration [4, 28] of the same molecule?
Its VEGF-induced cell migration is “prevented”.

B1: Slit2N (protein)
chain: QACPAQCSCSGSTVDCHGLALRSVPRNIPRNTERLDLNGNNITRITKTDFAGLRHLRVLQLMENKISTIERGAFQDLKELERLRLNRNHLQLFPELLFLGTAKLYRLDLSENQIQAIPRKAFRGAVDIKNLQLDYNQISCIEDGAFRALRDLEVLTLNNNNITRLSVASFNHMPKLRTFRLHSNNLYCDCHLAWLSDWLRQRPRVGLYTQCMGPSHLRGHNVAEVQKREFVCSGHQSFMAPSCSVLHCPAACTCSNNIVDCRGKGLTEIPTNLPETITEIRLEQNTIKVIPPGAFSPYKKLRRIDLSNNQISELAPDAFQGLRSLNSLVLYGNKITELPKSLFEGLFSLQLLLLNANKINCLRVDAFQDLHNLNLLSLYDNKLQTIAKGTFSPLRAIQTMHLAQNPFICDCHLKWLADYLHTNPIETSGARCTSPRRLANKRIGQIKSKKFRCSAKEQYFIPGTEDYRSKLSGDCFADLACPEKCRCEGTTVDCSNQKLNKIPEHIPQYTAELRLNNNEFTVLEATGIFKKLPQLRKINFSNNKITDIEEGAFEGASGVNEILLTSNRLENVQHKMFKGLESLKTLMLRSNRITCVGNDSFIGLSSVRLLSLYDNQITTVAPGAFDTLHSLSTLNLLANPFNCNCYLAWLGEWLRKKRIVTGNPRCQKPYFLKEIPIQDVAIQDFTCDDGNDDNSCSPLSRCPTECTCLDTVVRCSNKGLKVLPKGIPRDVTELYLDGNQFTLVPKELSNYKHLTLIDLSNNRISTLSNQSFSNMTQLLTLILSYNRLRCIPPRTFDGLKSLRLLSLHGNDISVVPEGAFNDLSALSHLAIGANPLYCDCNMQWLSDWVKSEYKEPGIARCAGPGEMADKLLLTTPSKKFTCQGPVDVNILAKCNPCLSNPCKNDGTCNSDPVDFYRCTCPYGFKGQDCDVPIHACISNPCKHGGTCHLKEGEEDGFWCICADGFEGENCEVNVDDCEDNDCENNSTCVDGINNYTCLCPPEYTGELCEEKLDFCAQDLNPCQHDSKCILTPKGFKCDCTPGYVGEHCDIDFDDCQDNKCKNGAHCTDAVNGYTCICPEGYSGLFCEFSPP
Which results are given for B1?
fibronectin-driven cell migration (haptotaxis) [5]: blocked; angiogenesis in oxygen-induced retinopathy [6]: markedly reduced; VEGF-A-stimulated phosphorylation of c-Src [7]: reduced; VEGF-A-induced VEGFR2 phosphorylation [8]: no effect; cell spreading on fibronectin [9]: markedly inhibited; cellular protrusive activity stimulated by integrin ligation (spreading) ([9]; endothelial cells on 9-11 fragment of fibronectin and Slit2): suppressed; Cdc42 activation [10]: significantly reduced; VEGF-A-stimulated leak of Evans Blue into the dermis [11]: prevented; mortality [12]: lower mortality; survivability rate [12]: 25% and 50%; Av. Wt. ([12]; iv): 17.4 grams and 18.5 grams and 16.0 grams and 15.4 grams; VEGF-A-dependent Rac1 activation [13]: prevented; angiogenesis in laser-induced choroidal neovascularization [14]: reduced; reduction in neovascularization [15]: 63%; fibronectin-induced increase in Rac-GTP [16]: efficiently blocked; concentration of inflammatory cells in bronchoalveolar lavages (BAL) [17]: significantly lower; concentration of protein in bronchoalveolar lavages (BAL) [17]: significantly lower; concentration of inflammatory cells in bronchoalveolar lavages (BAL) ([17]; listed as Slit protein): significantly reduced; concentration of protein in bronchoalveolar lavages (BAL) ([17]; listed as Slit protein): significantly reduced; VEGF-A-dependent tube formation ([18]; Robo4^+/+ endothelial cells): inhibited; VEGF-A-dependent tube formation, inhibitory activity ([18]; Robo4^AP/AP endothelial cells): lost; VEGF-165-induced ARF6 activation [19]: prevented; VEGF-A-dependent endothelial cell migration ([20]; Robo4^+/+ endothelial cells): inhibited; VEGF-A-dependent endothelial cell migration, inhibitory activity ([20]; Robo4^AP/AP endothelial cells): lost; Rho activation [21]: unaltered; bFGF-induced endothelial tube formation [22]: blocked; VEGF-stimulated Rac activation [23]: completely suppressed; VEGF-A induced leak of Evans Blue from the retinal blood vessels ([24]; Robo4^+/+ mice): suppressed; VEGF-A induced leak of Evans Blue from the retinal blood vessels ([24]; Robo4^AP/AP mice): refractory; VEGF-A-enhanced accumulation of HRP in the lower chamber [25]: prevented; fibronectin-induced increase in ARF6-GTP [26]: efficiently blocked

B2: SlitD1 (protein)
chain: ILNKVAPQACPAQCSCSGSTVDCHGLALRSVPRNIPRNTERLDLNGNNITRITKTDFAGLRHLRVLQLMENKISTIERGAFQDLKELERLRLNRNHLQLFPELLFLGTAKLYRLDLSENQIQAIPRKAFRGAVDIKNLQLDYNQISCIEDGAFRALRDLEVLTLNNNNITRLSVASFNHMPKLRTFRLHSNNLYCDCHLAWLSDWLRQRPRVGLYTQCMGPSHLRGHNVAEVQKREFVCSGHQS
With B2 as the molecule, how does the “Inhibition of VEGF mediated endothelial cell migration” value [27] read?
Its value is “active”.
